Assay results: PMC11661604 (2024)
Positions count from the first letter of the chain named. Names and notes keep the numbering of the source. Like-named read-outs stand apart in the source and are kept apart here.

B1: LA3-Fc (Fc fusion)
chain: MRTCRIHEISCGAHSTQCIPVSWRCDGENDCDSGEDEENCGNI
B2: LA3-Fc R114A (Fc fusion)
chain: B1 chain with R5A
B3: LA3-Fc Q126A (Fc fusion)
chain: B1 chain with Q17A
B4: LA1-3-Fc (Fc fusion)
chain: not shown

Assays:
[1] = molecular target: T1, native Semliki Forest virus (SFV) virion (Semliki Forest virus); experiment: SPR
[2] = molecular target: T1, native Semliki Forest virus (SFV) virion; experiment: SPR; remark: listed apart in the source

Binder	Kd [1] [nM]	Kd [2] [nM]
B1	1170	1020
B2	1580	
B3	11700	
B4		523
